Reference: patent US11839630B2, “CAR-T cells targeting IL-1RAP and their use” (ETABLISSEMENT FRANCAIS DU SANG, priority 2017, dated 2023)

Test system: HSCs
Assay: IL-1RAP cell surface staining of healthy HSCs
Assay type: binding, human
Protocol: FIG. 23: Effect of IL-1RAP CAR T cells on healthy hematopoietic cells and efficiency of the safety suicide gene iCASP9 cassette. (A) IL-1RAP cell surface expression on peripheral blood (left) or bone marrow (right) cells from healthy donors (n=5). SSC-A/CD45+ allowed discrimination of subpopulations as lymphocytes (SSC-A low), monocytes (CD33+), granulocytes (SSC-A high), or HSCs (CD33−/CD34+). RFI was calculated from isotype staining and provided in each window. (B) Representative (1 of 3) IL-1RAP staining of whole human cord blood cells. IL-1RAP staining is provided for whole CD34+, CD34+/CD38−, and CD34+/CD38+ HSC cord blood subpopulations. […] Percentages were calculated using absolute cell number determined using Trucount™ tubes based on 5000 fluorescent-bead cytometry acquisition. […] The quantification was performed after acquiring 5000 fluorescent beads. […] Cell killing was calculated as follows: % Dead cells=[1−(absolute number of viable cells in AP1903-treated cells/absolute number of viable cells in untreated cells)]×100. […] (G) Absolute quantification of IL-1RAP CAR T cells injected in a tumor (CML KU812, i.v.) xenograft NSG model 24 h after i.p. AP1903 (white bars) treatment (n=3 mice/group). […]

B1: #E3C3: mouse anti-hIL-1RAP monoclonal antibody subclone generated by standard hybridoma technique; VH SEQ ID NO: 2, VL SEQ ID NO: 4 (antibody, V domains shown)
VH: MGWSCIILFLVATATGVNSQVQLQQPGAELMMPGASVKVSCEASGYTFTDSWMHWVKQRPGQGLEWIGAIDPSDSYTTYNQKFTGKATLSVDESSNTAYMQLSSLTSEDSAVYYCARYYSGSNYISPFPYWGQGTLVTVSA
VL: MESQIQVFVFVFLWLSGVDGDIVMTQSHKFMSTSVGDRVTITCKASLDVSTAVAWYQQKPGQSPKLLIYSASYRYTGVPDRFTGSGSGTDFTFTISSVQAEDLAVYYCQQHYSPPFTFGSGTNLEIK
modifications: Amino acid sequence of chain H (VH) of murine scFv anti-IL-1RAP; Amino acid sequence of chain K (VL) of murine scFv anti-IL-1RAP
detection of HSCs (bone marrow from healthy donors or normal cord blood): did not detect
RFI of HSC staining (bone marrow from healthy donors, n=5): < 1.2
